B1: TLE6 (parent)
chain: FWHDTLTEQLWRIFAGVHDEKAKP
B2: VTI1B (parent)
chain: NKLLLSIIILLELAILGGLVYYKF

Variants of: B1
Assay: protein stability index of a GFP-peptide fusion (GPS, HEK-293T) (PSI 1-6); higher = more stable
Conditions: c terminus: a fixed tail appended
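Also: lentivirally expressed fusions sorted by FACS into six bins by GFP to DsRed ratio, PSI derived from sequencing read proportions per bin multiplied by bin number.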

Protein stability index of substitutions, site by site:
V17: H 2.82; I 1.14; L 1.48; T 1.33; P 1.65; G 2.26
F14: P 1.98; M 2.19; I 2.56; K 2.61; R 2.4; H 1.65; Q 1.52
R12: Y 1.69; C 2.88; A 1.91; L 1.91; E 1.63
A22: M 2.03; R 1.84; W 1.38; D 1.9; G 1.88; K 1.64; I 1.74
G16: S 1.82; V 2.85; K 2.12; H 2.26; Q 1.89; W 2.23
F1: D 2.17; H 1.96; S 1.91; R 2.48
H18: E 2.07; R 1.84; P 1.48; N 2.09; L 2.67; W 1.36; Y 2.35
W2: I 2.26; F 1.9; M 1.42; Y 1.85; D 2.61; V 3.26; Q 2.87; N 2.1; T 2.35
K23: Q 1.83; W 2.25; L 1.89; N 2.32; G 1.35; T 2.3; E 1.65; C 2.13
E20: P 1.87; Q 1.96; T 1.91; R 1.24; G 1.91; A 2.37; Y 2.01; D 2.62
I13: D 1.78; N 1.59; Q 2.54; T 2.44; E 2.99; C 2.39; M 2.13; P 2.85
A15: E 1.77; R 1.94; F 1.73; L 2.41; I 1.79; P 2.23; D 1.86; M 1.39
T7: I 2.04; L 2.3; G 2.28; E 1.42
P24: E 2.03; V 2.97; F 2.44; S 2.07; R 1.69
Q9: N 2.45; R 2.48; T 2.38; M 1.74; Y 1.65; E 1.58; L 1.79; C 3.67
E8: L 2.23; P 1.76; G 1.69; K 2.04; T 1.74; S 1.64; M 1.1
D19: I 2.08; V 3.94; G 1.72; F 2.61; C 2.06
D4: P 2.31; R 1.58; A 1.49; H 1.8; K 1.76; I 2.06
K21: I 3.25; H 1.69; G 2.06; F 2.72; P 1.47
T5: Y 2.35; E 1.91; V 2.62; K 2.78; C 1.34; M 1.96; I 2.26
L10: G 2.24; E 2.41; T 1.74
W11: C 1.99; V 1.56; Y 2.87; G 2.46; L 1.85; A 2.37; R 2.22; Q 2.21
L6: N 2.31; F 1.58; Y 1.11; D 1.46; W 1.27; V 1.75; S 2.66
H3: E 2.47; R 1.88; L 1.9; K 1.82; W 3.07; D 2.16

Variants of: B2
Assay: as above
Conditions: c terminus: a fixed tail appended

Protein stability index: each site, then its substitutions
A14: Y 3.19; R 3.34; S 2.35; W 3.4; Q 3.3
G17: C 3.4; S 3.45; H 2.42; R 2.35; T 3.94; I 2.35; Q 3.08; K 3.17; V 2.85; F 3.71; W 3.38; D 1.51; Y 2.5; L 3.46; P 2.58; E 3.26; N 2.64
V20: D 3.38; W 2.84; S 2.32; N 2.81; R 3.41; M 3.01; F 2.98; I 2.23; L 3.59; Q 3.31; C 1.34; K 3.48; Y 2.87; P 2.94; A 2.12; T 3.34
F24: S 2.46; H 2.07; Y 1.63; P 2.79; G 2.52; C 2.01; K 1.52; L 2.53; E 3.85; T 3.12; A 2.47; V 2.5; R 3.27; W 1.83; N 1.86; D 3.03; Q 2.77
Y22: Q 3.06; N 2.47; H 3.4; G 3.7; V 3.2; P 3.8; M 3.54; T 2.95; E 1.54; I 3.12; K 1.71; R 2.92; F 2.59; A 3.55; S 1.56; L 3.17; D 2.55; W 3.83; C 2.53
I15: P 3.21; K 3.29; C 2.38; S 3; E 2.52; W 2.18; M 3.49; L 2.62; Q 2.44; F 2.06; N 1.43; D 3.64; R 2.12; H 2.83; T 2.54; G 3.52; V 4.17
L19: R 2.95; C 2.05; S 3.48; I 3.35; F 2.77; P 3.45; A 3.32; G 3.14; N 3.02; M 2.76; E 4.42; T 1.82; K 2.67; Q 3.21; D 3.31; Y 2.48; W 2.91; H 1.56
Y21: C 3.01; S 1.66; R 2.32; G 3.61; P 2.42; F 3.24; D 3.33; I 2.42; L 3.39; N 2.3; E 2.28; W 2.62; M 2.58; A 1.46; H 2.32; V 2.17; Q 3.37; K 2.65; T 2.79
L16: Q 3.17; T 2.9; I 1.99; F 2.62; D 2.8; N 2.9; V 2.62; G 3.79; W 2.31; A 4.1; K 3.6; M 3.6; S 2.23; P 2.27; H 4.31; C 2.13; R 2.77
K23: C 2.27; D 2.65; T 2.41; S 2.05; V 3.21; N 2.72; F 2.1; P 3.73; E 2.78; Q 3.58; R 2.49; M 4.1; G 2.08; W 2.23; Y 2.52; A 2.52; H 1.85; I 2.95
G18: R 2.65; T 2.61; W 2.52; V 2.56; F 1.55; P 2.88; E 2.07; I 3.09; Y 1.86; A 2.61; N 2.96; C 3.99; D 2.01; H 2.46; S 3.16; L 2.61; Q 2.61

Source: the supplement of paper PMC10567573
